Reference: article PMC3143144

Assays:
[1] = biological target: αE2 (isolated E2 DNA-recognition helix peptide) (Human papillomavirus type 16?) (UniProt P06790); experiment: EMSA
[2] = biological target: αE2 (isolated E2 DNA-recognition helix peptide) (Human papillomavirus type 16?) (UniProt P06790); experiment: DNA melting

Chain of UniProt P06790 (P06790 whole entry): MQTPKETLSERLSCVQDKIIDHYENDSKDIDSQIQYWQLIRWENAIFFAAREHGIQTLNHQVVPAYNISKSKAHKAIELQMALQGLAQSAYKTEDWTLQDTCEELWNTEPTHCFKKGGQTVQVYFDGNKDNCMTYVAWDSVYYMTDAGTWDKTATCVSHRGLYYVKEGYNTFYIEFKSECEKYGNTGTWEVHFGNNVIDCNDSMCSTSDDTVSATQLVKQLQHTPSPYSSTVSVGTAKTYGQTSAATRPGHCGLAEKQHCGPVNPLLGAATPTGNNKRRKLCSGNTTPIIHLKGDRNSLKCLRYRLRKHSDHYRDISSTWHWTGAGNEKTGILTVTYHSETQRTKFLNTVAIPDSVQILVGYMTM

Row | Sequence | Kd [1] [µM] | binding signal [2]
1 | GTAGCACAAATCGGTTGA (double strand) [hemisite E2-Dst] | 6.3 | 2 C (ΔTm)
2 | ACATGGACCTGTCAAGTA (double strand) [Iset non E2-non Dst] | 50 | 
